T1: soluble mouse TNFR2 (mouse, UniProt P25119 23-258, limits assumed)
T1 sequence (looked up): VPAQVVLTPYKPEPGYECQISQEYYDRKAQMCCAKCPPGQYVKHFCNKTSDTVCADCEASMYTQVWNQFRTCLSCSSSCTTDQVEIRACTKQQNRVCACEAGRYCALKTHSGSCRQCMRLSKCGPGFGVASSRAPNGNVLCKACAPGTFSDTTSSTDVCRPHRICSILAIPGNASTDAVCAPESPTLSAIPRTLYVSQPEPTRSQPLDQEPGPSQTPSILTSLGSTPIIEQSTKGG

T2: human TNFR2 expressed on cells (human, UniProt P20333 23-461)
T2 construct: whole, on cells; also called hTNFR2 (cell); CHO-TNFR2
T2 sequence (looked up): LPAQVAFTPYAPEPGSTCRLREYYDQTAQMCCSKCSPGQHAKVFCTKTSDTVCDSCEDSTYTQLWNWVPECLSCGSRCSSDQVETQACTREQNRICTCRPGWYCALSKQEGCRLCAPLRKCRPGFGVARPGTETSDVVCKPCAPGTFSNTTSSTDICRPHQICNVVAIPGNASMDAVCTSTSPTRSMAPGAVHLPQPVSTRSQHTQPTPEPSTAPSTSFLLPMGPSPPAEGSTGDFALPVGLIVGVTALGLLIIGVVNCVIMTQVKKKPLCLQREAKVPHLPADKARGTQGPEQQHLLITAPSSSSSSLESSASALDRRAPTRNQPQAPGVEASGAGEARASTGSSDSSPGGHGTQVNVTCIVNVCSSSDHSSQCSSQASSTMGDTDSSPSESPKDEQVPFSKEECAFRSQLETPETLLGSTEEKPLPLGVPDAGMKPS

T3: cynomolgus TNFR2-His tagged protein (cynomolgus, UniProt A0A2K5VET2 132-366)
T3 construct: also called Cyno TNFR2; cynomolgus TNFR2 protein; not shown: His tag
T3 sequence: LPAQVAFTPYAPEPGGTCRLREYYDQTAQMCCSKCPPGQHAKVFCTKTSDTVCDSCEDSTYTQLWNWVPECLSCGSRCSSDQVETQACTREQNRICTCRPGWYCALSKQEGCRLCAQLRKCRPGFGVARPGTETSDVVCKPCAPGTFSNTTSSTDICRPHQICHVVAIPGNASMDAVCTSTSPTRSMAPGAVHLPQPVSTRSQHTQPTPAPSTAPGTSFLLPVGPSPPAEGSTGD

T4: human TNFR2-His tagged protein (soluble) (human, UniProt P20333 23-257)
T4 construct: also called hTNFR2 (soluble); soluble TNFR2-His; not shown: His tag
T4 sequence (looked up): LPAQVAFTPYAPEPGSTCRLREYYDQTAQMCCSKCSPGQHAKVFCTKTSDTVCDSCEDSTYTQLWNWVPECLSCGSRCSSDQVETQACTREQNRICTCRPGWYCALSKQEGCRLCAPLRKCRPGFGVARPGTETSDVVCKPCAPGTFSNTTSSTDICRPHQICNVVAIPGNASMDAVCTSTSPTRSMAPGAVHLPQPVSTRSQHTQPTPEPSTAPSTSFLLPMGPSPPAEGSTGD

T5: TNFR-Fc (UniProt P20333 23-257, limits assumed)
T5 construct: Printed only as TNFR-Fc; not shown: Fc part
T5 sequence (looked up): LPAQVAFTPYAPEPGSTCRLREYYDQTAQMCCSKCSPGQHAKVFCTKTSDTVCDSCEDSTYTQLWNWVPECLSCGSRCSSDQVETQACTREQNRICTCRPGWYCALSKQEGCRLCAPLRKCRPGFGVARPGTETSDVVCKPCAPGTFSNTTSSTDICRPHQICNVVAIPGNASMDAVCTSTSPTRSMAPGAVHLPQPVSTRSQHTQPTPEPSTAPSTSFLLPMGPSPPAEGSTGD


Key:
soluble mouse TNFR2 = target: T1, soluble mouse TNFR2; assay: binding screen on soluble mouse TNFR2 (mouse cross-reactivity)
[1] = target: T2, human TNFR2 expressed on cells; assay: flow cytometry on CHO cells expressing human TNFR2
Experimental: (§1) In FIGS. 3A-3B, human (3A) or cynomolgus (3B) TNFR2-His tagged protein was coated on 96-well ELISA plates at 1 μg/mL and incubated overnight at 4° C. Plates were washed and blocked using 1% BSA. Antibodies were added for 1 hour at room temperature (RT), washed, and detected using anti-Human HRP. Assay was developed using TMB substrate for 3-5 minutes. In FIG. 3C, FACS binding was performed on CHO cells that were engineered to express human TNFR2. Briefly, antibodies were incubated with 200,000 cells in MACS buffer for 1 hour followed by wash and detection using anti-human IgG BV421 for 20 minutes. Samples were analyzed using Cytoflex or MACSQuant flow cytometers. In FIG. 3D, ligand blocking ELISA was performed by coating plates with 1 ug/mL TNFR-Fc overnight at 4° C. Plates were washed, blocked and antibodies were incubated for 1 hr at RT. […] Assay was developed using TMB substrate for 5-7 minutes.

[2] = target: T3, cynomolgus TNFR2-His tagged protein; assay: ELISA on coated cynomolgus TNFR2-His
Experimental: as §1

[3] = target: T4, human TNFR2-His tagged protein (soluble); assay: ELISA on coated human TNFR2-His
Experimental: as §1

TNFR-Fc = target: T5, TNFR-Fc; assay: TNF-α blocking ELISA on coated TNFR-Fc
Experimental: as §1

| binding result (soluble mouse TNFR2) | EC50 [1] [nM] | EC50 [2] [nM] | EC50 [3] [nM] | IC50 (TNFR-Fc) [nM] | Binder |
| --- | --- | --- | --- | --- | --- |
| no binding | 0.26 | 0.243 | 0.206 | 5.41 | chimeric antibody clone 23.71 (rab600_23_71) (antibody, V domains shown) VH: QSVEESGGRLVTPGTSLTLTCTVSGIDLSSYAMSWVRQAQGKGLEWIGIIGDSGSTWYASWAKGRFTISKTSTTVDLKITSPTPEDTATYFCAREPDYGGYAGYGYGDLWGQGTLVTVSS VL: IKMTQTLASVSAAVGGTGSISCQASEDIGNYVAWYQQKPGQPPKFLIYDTSHLASGVPSRFKGSRSGKEFTLTISGVQCDDAATYYCQHGYYTSDTDNTFGGGTEVVVK |
| no binding | – | 0.269 | 0.243 | – | chimeric antibody clone 8G10.7 (rab600_23_8G10.7) (antibody, V domains shown) VH: LEQSGGGAGGGLVKPGGSLELCCKASGFTLINSHWICWVRQAPGKGLEWIGCIFAGSAGSTYYATWVSGRFTLSRDIDQNTGCLQLNSLTAADTAMYYCARDQTNTAYDPFYLNLWGQGTLVTVSS VL: IEMTQTPFSVSAAVGGTVTINCQASENIYSSLAWYQQKPGQPPKLLIYAASDLASGVPSRFSGSGSGTEYTLTISGVQCADAATYYCQSAYSSGSDDNGFGGGTEVVVK |
| no binding | 0.321 | 0.0763 | 0.149 | 2.97 | chimeric antibody clone 28B7.3 (rab600_23_28B7.3) (antibody, V domains shown) VH: QSVEESGGRLVTPGTPLTLTCTVSGFSLNSHYMIWVRQAPGKGLEYIGIITSSDYIYYARWAKGRFTISKTSSTTVDLKITSPTTEDTATYSCARYNYDDDGELFNLWGQGTLVTVSS VL: AVLTQTPSSVSAAVGGTVTLNCQSSQSIDANNDLAWYQQKPGQPPRLLIYLASKLASGVPSRFSGSGSGTQFTLTISGVQCDDAATYYCLGGYDDDADNTFGGGTEVVVK |
| no binding | – | 0.195 | 0.184 | 2.92 | chimeric antibody clone 37H4.1 (rab600_23_37H4.1) (antibody, V domains shown) VH: QSVEESGGRLVTPGTPLTLTCTVSGFSLNSHYMIWVRQAPGKGLEYIGVITSSDYIYYARWAKGRFTISKTSSTTVDLKITSPTTEDTATYFCARYNYDDDGELFNLWGQGTLVTVSS VL: AVLTQTPSSVSAAVGGTVTLNCQSSQSIDANNDLAWYQQKPGQPPKLLIYLASTRASGVPSRFKGSGSGTQFTLTISGVQCYDAATYYCLGGYDDDADNTFGGGTEVVVK |
| no binding | 0.091 | 0.197 | 0.147 | 2.98 | chimeric antibody clone 25.71 (rab600_25_71) (antibody, V domains shown) VH: QSVEESEGRLVTPGTPLTLTCTVSGIDLSSYAMGWVRQAPGMGLEWIGDISTSGNAYYATWVKGRFTISRTSTTVDLKMASLTTADTATYFCARADYGGETYAFDPWGPGTLVTVSS VL: DIVMTQTPASVEAAVGGTVTIKCQASQSISSYLNWYQQKPGQPPKLLIYSASTLASGVPSRFKGSGSGTQFTLTISGVECADAATYYCQQGYSDSNIDNVFGGGTEVVVK |
| no binding | 0.147 | 0.151 | 0.144 | 2.78 | chimeric antibody clone 9 (rab600_25_9) (antibody, V domains shown) VH: QSVEESGGRLVTPGTPLTLTCTVSGFSLSTYDINWVRQAPGKGLEWIGIIYTGGITNFANWAKGRFTISKTSTTVDLKIASPTTEDTATYFCARGGYDSDGYVYPDAFDPWGPGTLVTVSS VL: ALVMTQTPASVEADVGGTVTINCQASESISNLLAWYQQKPGQRPKLLIYRASILTSGVSSRFKGSGSGTEYTLTINGVQCADAATYYCQHGYTGTNVQNVFGGGTEVVVK |
| no binding | 0.1 | 0.093 | 0.098 | 3.16 | chimeric antibody clone 24 (rab600_23_24) (antibody, V domains shown) VH: QSLEESGGRLVTPGTPLTLTCTASGFSLNSYGVNWVRQAPGKGLEWIGGINTGGSTYYANWAKGRFTISKTSAMVDLKVTSPTTEDTATYVCARTSGNNVYNYFTLWGQGTLVTVSS VL: DIVMTQTPSSVSAAVGGTVTIYCQASQSIPSLLAWYQQKSGQPPKLLIYAPSTLASGVPSRFKASGSGTQFTLTISDLECADAATYYCQSYYYGDNTYNNIFGGGTEVVVK |
| no binding | – | 0.0927 | 0.157 | 24.6 | chimeric antibody clone 8G11.5 (rab600_23_8G11.5) (antibody, V domains shown) VH: QSLEESGGRLVTPGTPLTLTCTVSGFSLNSNGMNWVRQAPGKGLEWIGGINAGGSAYYANWAKGRFTISKTSTMVDLKITSPTTEDTATYFCAKTSGINVYNYLNLWGQGTLVTVSS VL: DIVMTQTPSPVSAAVGGTVTINCQASQSIYTALAWYQQKSGQPPKLLIYAASTLASGVPSRFKGSGSGTQFTLTISDLECADAATYYCQNYYYGDNTYNNTFGGGTEVVVK |
| no binding | – | 0.081 | 0.156 | 27.8 | chimeric antibody clone 37D1.4 (rab600_23_37D1.4) (antibody, V domains shown) VH: QSLEESGGRLVTPGTPLTLTCTVSGFSLNSNGMNWVRQAPGKGLEWIGGINAGGSAYYANWAKGRFTISKTSTMVDLKITSPTTEDTATYFCAKTSGINVYNYLNLWGQGTLVTVSS VL: DIVMTQTPSPVSAAVGGTVTINCQASQSIYTALAWYQQKSGQPPKLLIYAASTLASGVPSRFKGSGSGTQFTLTISDLECADAATYYCQNYYYGDNTYNNTFGGGTEVVVK |
| no binding | 1.32 | 0.0862 | 0.124 | 4.35 | chimeric antibody clone 55F6.1 (taken as rab600_23_55F6.6) (antibody, V domains shown) VH: QQQLEESGGDLVKPGASLTVTCTASGFSFTNNYYMCWVRQAPGKGLEWIGCIYPSIVGPTYYANWAKGRFTISKTSSTTVTLEMTSLTAADTATYFCVRDRYDDYGDYFNLWGPGTLVTVSS VL: DIVMTQTPASVSVPVGGTVTIKCQASQSIYNYLSWYQQKPGQPPKRLIYYASTLASGVPSRFSGSGSGTEFTLTISDLECADAATYYCQSNSGVNGNRYGNAFGGGTEVVVK |
| no binding | 0.1 | 0.148 | 0.126 | 3.25 | chimeric antibody clone 37 (rab600_25_37) (antibody, V domains shown) VH: QSVEESGGRLVTPGTPLILTCTVSGIDLSNYAMGWFRQAPGEGLEWIGSRRTDGITYYANWAEGRFTISRTSTTVDLEITSPTTEDTATYFCGRDVGGDGGWYFNLWGPGTLVTVSS VL: AGDMTQTPASVEVAVGGTVTIKCQASQSINIYLAWYQQKPGQPPKLLIYDASKLASGVPSRFSGSGSGTEFTLTISDLECADAATYYCQQGINNIGFGGGTEVVVK |
| no binding | – | 0.191 | 0.261 | – | chimeric antibody clone 11G12.1 (rab600_23_11G12.1) (antibody, V domains shown, also called rab600_23_HG12.1) VH: QSLEESGGDLVQPGASLTLTCTASGFSVNVNSYMCWVRQAPGKGLELIACIDTGSGGSTWYGSWAKGRFTISKSTNLNTVTLQMTSLTAADTATYFCARARNTYGYGDYVYGGAFDPWGPGTLVTVSS VL: DIVMTQTPASVEAAVGGTVTIKCQASQSISSTYLSWYQQKPGQRPKLLIYQASTLASGVPSRFKGSGSGTEFTLTISDLECADAATYYCQGGYFSDNGCYNAFGGGTEVVVK |

Reference: patent US20220372154A1 (APEXIGEN, published 2022)
